From the supplement of paper PMC10065799, “High-throughput profiling of sequence recognition by tyrosine kinases and SH2 domains using bacterial peptide display” (eLife, 2023)

Key:
SHP2-C SH2 = test: SH2 binding enrichment of the phosphorylated peptide, bacterial display (enrichment ratio); higher = better substrate or ligand; peptides without Tyr show the background
c-Src SH2 = test: as above
Grb2 SH2 = Grb2 SH2 (UniProt P62993); test: as above
AncSZ = test: phosphorylation enrichment, bacterial display (enrichment ratio); higher = better substrate or ligand; peptides without Tyr show the background
Jak2 = Jak2 (UniProt O60674); test: as above
Chain of Jak2 (O60674 whole entry, looked up): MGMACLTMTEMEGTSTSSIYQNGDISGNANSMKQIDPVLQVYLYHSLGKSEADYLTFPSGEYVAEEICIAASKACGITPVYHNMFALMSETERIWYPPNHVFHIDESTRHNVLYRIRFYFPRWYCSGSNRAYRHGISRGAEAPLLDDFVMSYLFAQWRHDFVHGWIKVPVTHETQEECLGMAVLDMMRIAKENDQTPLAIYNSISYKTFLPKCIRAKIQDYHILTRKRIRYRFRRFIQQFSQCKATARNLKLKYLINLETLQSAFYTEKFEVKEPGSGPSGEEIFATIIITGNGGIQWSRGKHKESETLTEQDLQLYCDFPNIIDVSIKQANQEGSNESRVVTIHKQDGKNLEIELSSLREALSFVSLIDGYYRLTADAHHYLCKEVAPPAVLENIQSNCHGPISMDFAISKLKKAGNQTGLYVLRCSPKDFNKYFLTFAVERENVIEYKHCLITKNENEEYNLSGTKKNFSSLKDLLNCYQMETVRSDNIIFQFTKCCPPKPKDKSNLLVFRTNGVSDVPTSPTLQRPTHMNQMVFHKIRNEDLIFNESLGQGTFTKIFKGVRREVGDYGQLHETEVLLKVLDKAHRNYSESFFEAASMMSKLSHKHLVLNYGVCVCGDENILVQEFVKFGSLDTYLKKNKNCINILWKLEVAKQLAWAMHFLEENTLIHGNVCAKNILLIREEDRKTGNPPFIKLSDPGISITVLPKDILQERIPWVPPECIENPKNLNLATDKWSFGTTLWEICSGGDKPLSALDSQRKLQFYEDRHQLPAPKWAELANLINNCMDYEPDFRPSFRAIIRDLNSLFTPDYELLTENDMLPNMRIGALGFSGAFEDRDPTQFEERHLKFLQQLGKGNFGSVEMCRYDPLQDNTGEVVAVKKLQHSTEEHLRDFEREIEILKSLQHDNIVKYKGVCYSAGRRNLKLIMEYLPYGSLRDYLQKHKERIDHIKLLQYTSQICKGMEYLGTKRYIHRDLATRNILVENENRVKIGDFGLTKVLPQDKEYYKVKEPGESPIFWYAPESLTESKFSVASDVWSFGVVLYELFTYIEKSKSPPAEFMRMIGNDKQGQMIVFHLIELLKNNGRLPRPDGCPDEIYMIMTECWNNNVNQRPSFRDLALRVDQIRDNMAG

MERTK = MERTK (UniProt Q12866); test: as above
c-Abl (mouse) = test: as above
EPHB2 = EPHB2 (UniProt P29323); test: as above
Fer (mouse) = test: as above
c-Src = test: as above
EPHB1 = EPHB1 (UniProt P54762); test: as above
FGFR1 = FGFR1 (UniProt P11362); test: as above
Chain of FGFR1 (P11362 whole entry, looked up): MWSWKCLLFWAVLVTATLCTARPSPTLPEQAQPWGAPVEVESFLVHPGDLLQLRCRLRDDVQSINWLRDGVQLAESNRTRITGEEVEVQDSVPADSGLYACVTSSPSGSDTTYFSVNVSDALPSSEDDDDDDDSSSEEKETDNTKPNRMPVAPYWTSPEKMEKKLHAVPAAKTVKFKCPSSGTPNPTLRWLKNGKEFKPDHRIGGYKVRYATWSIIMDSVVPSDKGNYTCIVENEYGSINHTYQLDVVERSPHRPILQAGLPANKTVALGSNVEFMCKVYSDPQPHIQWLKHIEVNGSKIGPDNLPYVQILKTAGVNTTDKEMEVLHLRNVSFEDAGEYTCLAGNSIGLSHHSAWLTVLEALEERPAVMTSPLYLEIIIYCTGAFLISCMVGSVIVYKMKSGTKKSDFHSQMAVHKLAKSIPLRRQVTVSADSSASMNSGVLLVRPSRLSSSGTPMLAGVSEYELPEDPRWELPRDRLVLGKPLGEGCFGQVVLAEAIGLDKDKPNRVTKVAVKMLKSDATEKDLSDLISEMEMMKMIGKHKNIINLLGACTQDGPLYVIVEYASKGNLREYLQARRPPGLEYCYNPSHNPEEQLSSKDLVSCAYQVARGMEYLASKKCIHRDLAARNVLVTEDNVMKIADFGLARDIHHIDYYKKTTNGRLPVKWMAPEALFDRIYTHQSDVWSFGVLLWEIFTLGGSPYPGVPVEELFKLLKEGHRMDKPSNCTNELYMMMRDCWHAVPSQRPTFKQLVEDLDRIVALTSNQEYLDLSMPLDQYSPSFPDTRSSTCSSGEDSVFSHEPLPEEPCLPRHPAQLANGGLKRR

Fyn = Fyn (UniProt P06241); test: as above
Chain of Fyn (P06241 whole entry, looked up): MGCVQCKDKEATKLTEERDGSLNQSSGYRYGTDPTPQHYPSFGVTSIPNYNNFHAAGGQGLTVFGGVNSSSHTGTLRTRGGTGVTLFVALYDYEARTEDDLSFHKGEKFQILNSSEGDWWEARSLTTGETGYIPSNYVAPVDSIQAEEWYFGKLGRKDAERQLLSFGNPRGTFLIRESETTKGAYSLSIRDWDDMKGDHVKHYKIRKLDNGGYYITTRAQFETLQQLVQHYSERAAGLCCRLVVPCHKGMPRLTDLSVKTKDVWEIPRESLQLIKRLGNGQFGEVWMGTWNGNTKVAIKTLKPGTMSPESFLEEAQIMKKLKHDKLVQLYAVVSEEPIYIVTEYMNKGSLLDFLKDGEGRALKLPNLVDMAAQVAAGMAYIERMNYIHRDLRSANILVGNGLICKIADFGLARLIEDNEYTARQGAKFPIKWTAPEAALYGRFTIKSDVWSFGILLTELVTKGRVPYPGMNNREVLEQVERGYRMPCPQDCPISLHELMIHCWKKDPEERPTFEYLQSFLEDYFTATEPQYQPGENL

Fes = Fes (UniProt P07332); test: as above
Chain of Fes (P07332 whole entry, looked up): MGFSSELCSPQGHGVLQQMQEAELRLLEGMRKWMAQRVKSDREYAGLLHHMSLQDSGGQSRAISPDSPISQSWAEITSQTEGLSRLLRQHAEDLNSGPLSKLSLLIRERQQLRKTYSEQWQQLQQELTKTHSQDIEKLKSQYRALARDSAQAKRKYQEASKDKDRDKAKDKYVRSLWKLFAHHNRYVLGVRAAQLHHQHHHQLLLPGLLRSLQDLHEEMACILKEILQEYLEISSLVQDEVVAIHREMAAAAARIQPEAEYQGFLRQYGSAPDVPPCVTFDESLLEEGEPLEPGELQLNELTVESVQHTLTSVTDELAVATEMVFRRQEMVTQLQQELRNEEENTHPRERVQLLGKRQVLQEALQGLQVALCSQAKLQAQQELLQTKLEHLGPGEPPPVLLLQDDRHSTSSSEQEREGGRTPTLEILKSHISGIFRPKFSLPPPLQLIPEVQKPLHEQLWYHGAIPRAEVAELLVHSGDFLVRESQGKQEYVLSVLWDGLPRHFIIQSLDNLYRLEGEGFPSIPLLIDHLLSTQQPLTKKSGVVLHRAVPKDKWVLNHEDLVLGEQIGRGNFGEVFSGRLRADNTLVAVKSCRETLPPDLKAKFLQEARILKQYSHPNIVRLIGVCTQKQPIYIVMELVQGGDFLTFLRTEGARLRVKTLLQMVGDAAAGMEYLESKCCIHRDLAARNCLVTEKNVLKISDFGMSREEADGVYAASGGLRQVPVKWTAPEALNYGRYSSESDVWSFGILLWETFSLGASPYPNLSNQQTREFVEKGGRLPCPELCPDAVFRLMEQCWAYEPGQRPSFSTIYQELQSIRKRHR

Hck = Hck (UniProt P08631); test: as above
Chain of Hck (P08631 whole entry, looked up): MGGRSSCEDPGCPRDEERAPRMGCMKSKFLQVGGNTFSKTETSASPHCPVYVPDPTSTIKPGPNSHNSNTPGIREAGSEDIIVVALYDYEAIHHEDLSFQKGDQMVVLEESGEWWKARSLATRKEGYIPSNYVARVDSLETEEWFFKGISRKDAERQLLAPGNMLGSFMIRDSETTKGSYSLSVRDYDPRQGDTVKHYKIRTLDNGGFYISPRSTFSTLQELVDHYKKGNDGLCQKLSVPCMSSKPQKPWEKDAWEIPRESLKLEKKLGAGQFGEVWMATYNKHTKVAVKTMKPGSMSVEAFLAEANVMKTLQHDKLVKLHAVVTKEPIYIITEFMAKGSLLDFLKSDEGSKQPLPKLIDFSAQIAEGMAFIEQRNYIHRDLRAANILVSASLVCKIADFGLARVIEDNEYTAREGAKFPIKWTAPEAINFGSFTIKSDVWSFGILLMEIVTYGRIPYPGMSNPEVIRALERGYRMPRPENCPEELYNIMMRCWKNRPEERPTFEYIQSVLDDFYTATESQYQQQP

FGFR3 = FGFR3 (UniProt P22607); test: as above
Chain of FGFR3 (P22607 whole entry, looked up, the tested form may be a part): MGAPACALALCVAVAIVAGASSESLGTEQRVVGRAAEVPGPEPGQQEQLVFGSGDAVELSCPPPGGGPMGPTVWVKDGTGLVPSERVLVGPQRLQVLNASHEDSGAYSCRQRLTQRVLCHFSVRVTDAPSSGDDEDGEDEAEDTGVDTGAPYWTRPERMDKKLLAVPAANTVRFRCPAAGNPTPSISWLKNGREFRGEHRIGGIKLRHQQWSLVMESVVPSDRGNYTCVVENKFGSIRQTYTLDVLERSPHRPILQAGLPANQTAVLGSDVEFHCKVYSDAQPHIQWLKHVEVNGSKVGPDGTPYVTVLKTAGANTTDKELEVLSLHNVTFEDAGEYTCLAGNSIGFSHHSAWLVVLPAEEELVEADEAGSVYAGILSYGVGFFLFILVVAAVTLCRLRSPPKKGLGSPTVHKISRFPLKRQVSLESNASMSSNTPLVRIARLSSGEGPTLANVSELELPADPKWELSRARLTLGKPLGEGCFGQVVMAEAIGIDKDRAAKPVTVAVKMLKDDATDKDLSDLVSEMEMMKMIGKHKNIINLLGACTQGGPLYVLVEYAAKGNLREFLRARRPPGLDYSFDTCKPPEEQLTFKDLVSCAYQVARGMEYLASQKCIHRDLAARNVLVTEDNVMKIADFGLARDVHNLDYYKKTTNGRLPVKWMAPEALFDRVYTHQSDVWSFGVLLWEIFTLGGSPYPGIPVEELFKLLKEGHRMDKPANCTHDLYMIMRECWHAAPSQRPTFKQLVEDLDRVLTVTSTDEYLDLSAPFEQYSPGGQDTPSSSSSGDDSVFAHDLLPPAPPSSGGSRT
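Throughout, for SH2 binding enrichment of the phosphorylated peptide, bacterial display: peptide library displayed on the E. coli surface as eCPX fusions, selected cells deep-sequenced, score is each peptide's frequency after selection divided by its frequency in the input.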
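Throughout, for phosphorylation enrichment, bacterial display: 11-residue human phosphosite peptides and single-mutation variants displayed on the E. coli surface, counted by deep sequencing, each peptide's frequency after selection divided by its frequency in the unselected input library; frequency after pTyr selection over input frequency; kinase dosed for 20-30% of maximal phosphorylation in three min.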

| SH2 binding enrichment (SHP2-C SH2) | SH2 binding enrichment (c-Src SH2) | SH2 binding enrichment (Grb2 SH2) | Sequence | phosphorylation enrichment (AncSZ) | phosphorylation enrichment (Jak2) | phosphorylation enrichment (MERTK) | phosphorylation enrichment (c-Abl (mouse)) | phosphorylation enrichment (EPHB2) | phosphorylation enrichment (Fer (mouse)) | phosphorylation enrichment (c-Src) | phosphorylation enrichment (EPHB1) | phosphorylation enrichment (FGFR1) | phosphorylation enrichment (Fyn) | phosphorylation enrichment (Fes) | phosphorylation enrichment (Hck) | phosphorylation enrichment (FGFR3) |
| --- | --- | --- | --- | --- | --- | --- | --- | --- | --- | --- | --- | --- | --- | --- | --- | --- |
| 0.362 | 0.428 | 0.729 | ILTYKYLQKPM [KIT_Y547] | 0.666 | 0.801 | 0.487 | 0.654 | 0.591 | 0.495 | 0.521 | 0.686 | 0.396 | 0.41 | 1.15 | 0.458 | 0.518 |
| 0.727 | 0.505 | 0.763 | IQTDGYRAPEA [UHMK1_Y197] | 0.601 | 1.25 | 0.491 | 0.725 | 0.496 | 0.461 | 0.398 | 0.782 | 0.447 | 0.428 | 0.829 | 0.717 | 0.382 |
| 0.838 | 0.58 | 1.01 | IRFSDYVEVAD [PHACTR1_Y525] | 1.41 | 1.01 | 0.434 | 0.755 | 0.977 | 0.431 | 0.448 | 1.42 | 1.88 | 0.538 | 1.01 | 0.519 | 1.58 |
| 0.486 | 0.537 | 0.628 | IRNRDYDDIDD [TTYH2_Y424_T419I] | 1.07 | 0.676 | 0.541 | 0.649 | 0.575 | 0.494 | 0.491 | 0.466 | 0.7 | 0.594 | 0.887 | 0.515 | 0.676 |
| 0.656 | 0.409 | 0.78 | ISIFYYAKGQP [MPZ_Y82_H81Y] | 1.38 | 1.36 | 0.504 | 1.19 | 0.61 | 0.496 | 0.649 | 0.532 | 0.563 | 0.52 | 1.72 | 0.429 | 0.674 |
| 0.619 | 0.576 | 1.04 | ISSLLYELLEE [TRPC6_Y896_R895L] | 1.94 | 1.21 | 6.1 | 1.31 | 4.5 | 7.37 | 3.33 | 7.24 | 0.953 | 2.14 | 1.94 | 3.25 | 1.35 |
| 0.955 | 0.897 | 0.918 | IVFTSYFLTIL [TAS2R16_Y239] | 1.45 | 1.76 | 0.476 | 1.05 | 0.709 | 0.511 | 0.514 | 0.676 | 0.641 | 0.578 | 1.89 | 0.633 | 0.976 |

The next lines start with the sequence.

| Sequence | SH2 binding enrichment (SHP2-C SH2) | SH2 binding enrichment (c-Src SH2) | SH2 binding enrichment (Grb2 SH2) | phosphorylation enrichment (AncSZ) | phosphorylation enrichment (Jak2) | phosphorylation enrichment (MERTK) | phosphorylation enrichment (c-Abl (mouse)) | phosphorylation enrichment (EPHB2) | phosphorylation enrichment (Fer (mouse)) | phosphorylation enrichment (c-Src) | phosphorylation enrichment (EPHB1) | phosphorylation enrichment (FGFR1) | phosphorylation enrichment (Fyn) | phosphorylation enrichment (Fes) | phosphorylation enrichment (Hck) | phosphorylation enrichment (FGFR3) |
| --- | --- | --- | --- | --- | --- | --- | --- | --- | --- | --- | --- | --- | --- | --- | --- | --- |
| ILDEAYVMASM [EGFR_Y764_V769M] | 0.633 | 0.424 | 0.66 | 1.22 | 0.965 | 0.447 | 0.746 | 0.553 | 0.557 | 0.643 | 0.461 | 0.525 | 0.539 | 1.19 | 0.528 | 0.62 |
| ILGLEYSLRVP [HELZ2_Y1304] | 0.938 | 0.484 | 0.782 | 1.03 | 1.05 | 0.431 | 0.753 | 0.733 | 0.48 | 0.947 | 0.49 | 0.573 | 0.515 | 1.22 | 0.567 | 0.637 |
| INVTIYGKTFR [EFHC1_Y177_I174V] | 0.581 | 0.572 | 0.76 | 1.18 | 1.1 | 0.644 | 0.868 | 0.588 | 0.625 | 0.641 | 0.631 | 0.539 | 0.547 | 1.29 | 0.609 | 0.756 |
| IRFPPYTDWNQ [ALDH3B2_Y365_H361R_YF] | 0.748 | 0.768 | 0.886 | 0.741 | 0.555 | 0.421 | 0.45 | 0.392 | 0.53 | 0.328 | 0.396 | 0.54 | 0.395 | 0.739 | 0.439 | 0.493 |
| IRKTEYPFSSE [ATP2C1_Y452_A450T] | 0.807 | 0.587 | 0.928 | 0.582 | 0.599 | 0.348 | 0.549 | 0.397 | 0.339 | 0.428 | 0.426 | 0.466 | 0.401 | 0.837 | 0.405 | 0.449 |
| IRTIDYRYTVW [IDS_Y497] | 1.31 | 0.985 | 1.04 | 1.15 | 0.929 | 0.422 | 0.695 | 0.566 | 0.57 | 0.398 | 0.666 | 0.554 | 0.493 | 1.16 | 0.535 | 0.732 |
| ITLPIYTKESE [ANK2_Y1455] | 0.72 | 0.515 | 0.845 | 0.961 | 1.11 | 1.75 | 0.848 | 0.499 | 0.485 | 0.974 | 0.641 | 0.722 | 0.88 | 1.19 | 0.907 | 0.76 |
| ITNLLYHVVGG [GBA_Y412_W417G] | 1.12 | 0.953 | 1.07 | 1.18 | 2.67 | 7.37 | 1.12 | 3.36 | 1.32 | 3.81 | 5.68 | 6.43 | 5.17 | 1.12 | 5.76 | 5.48 |
| ITNVLYHVVGW [GBA_Y412_L410V] | 1.24 | 1.27 | 1.78 | 1.06 | 1.87 | 6.81 | 4.13 | 1.32 | 1.82 | 3.13 | 2.31 | 6.43 | 3.01 | 1.25 | 4.59 | 5.06 |
| ITVPAYFNDSQ [HSPA9_Y196] | 0.878 | 0.498 | 1.08 | 0.895 | 1.02 | 0.456 | 0.785 | 0.491 | 0.54 | 0.536 | 0.473 | 0.581 | 0.553 | 1.06 | 0.528 | 0.672 |
